Assay results: the supplement of paper PMC5998384

Legend:
[1] = system: HeLa Kyoto; experiment: solubility in G1/S (NP-40 vs SDS abundance) (log2 ratio); higher = more soluble; conditions: cell cycle stage: G1/S
[2] = system: HeLa Kyoto; experiment: solubility change mitosis vs G1/S (difference of NP-40 vs SDS log2 ratios) (log2 ratio difference); higher = more soluble in mitosis
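Wherever solubility change mitosis vs G1/S (difference of NP-40 vs SDS log2 ratios) is given: synchronized HeLa Kyoto cells (double thymidine block for G1/S, nocodazole release for mitosis), protein amounts in NP-40 versus SDS lysates quantified by mass spectrometry, three biological replicates.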
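Wherever solubility in G1/S (NP-40 vs SDS abundance) is given: HeLa Kyoto cells arrested at G1/S by double thymidine block, proteins quantified by TMT10plex mass spectrometry in mild NP-40 versus SDS extracts, three biological replicates.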

Sequence	solubility in G1/S (log2) [1]	solubility change mitosis (log2) [2]
MKRHRPVSSSDSSDESPSTSFTSGSMYRIKSKIPNEHKKPAEVFRKDLISAMKLPDSHHINPDSYYLFADTWKEEWEKGVQVPASPDTVPQPSLRIIAEKVKDVLFIRPRKYIHCSSPDTTEPGYINIMELAASVCRYDLDDMDIFWLQELNEDLAEMGCGPVDENLMEKTVEVLERHCHENMNHAIETEEGLGIEYDEDVICDVCRSPDSEEGNDMVFCDKCNVCVHQACYGILKVPEGSWLCRSCVLGIYPQCVLCPKKGGALKTTKTGTKWAHVSCALWIPEVSIACPERMEPITKISHIPPSRWALVCNLCKLKTGACIQCSIKSCITAFHVTCAFEHGLEMKTILDEGDEVKFKSYCLKHSQNRQKLGEAEYPHHRAKEQSQAKSEKTSLRAQKLRELEEEFYSLVRVEDVAAELGMPTLAVDFIYNYWKLKRKSNFNKPLFPPKEDEENGLVQPKEESIHTRMRMFMHLRQDLERVRNLCYMISRREKLKLSHNKIQEQIFGLQVQLLNQEIDAGLPLTNALENSLFYPPPRITLKLKMPKSTPEDHRNSSTETDQQPHSPDSSSSVHSIRNMQVPQESLEMRTKSYPRYPLESKNNRLLASLSHSRSEAKESSPAWRTPSSECYHGQSLGKPLVLQAALHGQSSIGNGKSQPNSKFAKSNGLEGSWSGNVTQKDSSSEMFCDQEPVFSPHLVSQGSFRKSTVEHFSRSFKETTNRWVKNTEDLQCYVKPTKNMSPKEQFWGRQVLRRSAGRAPYQENDGYCPDLELSDSEAESDGNKEKVRVRKDSSDRENPPHDSRRDCHGKSKTHPLSHSSMQR [JADE3]	-0.949	0.383
MKSSGLFPFLVLLALGTLAPWAVEGSGKSFKAGVCPPKKSAQCLRYKKPECQSDWQCPGKKRCCPDTCGIKCLDPVDTPNPTRRKPGKCPVTYGQCLMLNPPNFCEMDGQCKRDLKCCMGMCGKSCVSPVKA [SLPI]	-0.403	0.714
MKTSPRRPLILKRRRLPLPVQNAPSETSEEEPKRSPAQQESNQAEASKEVAESNSCKFPAGIKIINHPTMPNTQVVAIPNNANIHSIITALTAKGKESGSSGPNKFILISCGGAPTQPPGLRPQTQTSYDAKRTEVTLETLGPKPAARDVNLPRPPGALCEQKRETCADGEAAGCTINNSLSNIQWLRKMSSDGLGSRSIKQEMEEKENCHLEQRQVKVEEPSRPSASWQNSVSERPPYSYMAMIQFAINSTERKRMTLKDIYTWIEDHFPYFKHIAKPGWKNSIRHNLSLHDMFVRETSANGKVSFWTIHPSANRYLTLDQVFKPLDPGSPQLPEHLESQQKRPNPELRRNMTIKTELPLGARRKMKPLLPRVSSYLVPIQFPVNQSLVLQPSVKVPLPLAASLMSSELARHSKRVRIAPKVLLAEEGIAPLSSAGPGKEEKLLFGEGFSPLLPVQTIKEEEIQPGEEMPHLARPIKVESPPLEEWPSPAPSFKEESSHSWEDSSQSPTPRPKKSYSGLRSPTRCVSEMLVIQHRERRERSRSRRKQHLLPPCVDEPELLFSEGPSTSRWAAELPFPADSSDPASQLSYSQEVGGPFKTPIKETLPISSTPSKSVLPRTPESWRLTPPAKVGGLDFSPVQTSQGASDPLPDPLGLMDLSTTPLQSAPPLESPQRLLSSEPLDLISVPFGNSSPSDIDVPKPGSPEPQVSGLAANRSLTEGLVLDTMNDSLSKILLDISFPGLDEDPLGPDNINWSQFIPELQ [FOXM1]	0.114	-0.0969
MKTVLMVAEKPSLAQSIAKILSRGSLSSHKGLNGACSVHEYTGTFAGQPVRFKMTSVCGHVMTLDFLGKYNKWDKVDPAELFSQAPTEKKEANPKLNMVKFLQVEGRGCDYIVLWLDCDKEGENICFEVLDAVLPVMNKAHGGEKTVFRARFSSITDTDICNAMACLGEPDHNEALSVDARQELDLRIGCAFTRFQTKYFQGKYGDLDSSLISFGPCQTPTLGFCVERHDKIQSFKPETYWVLQAKVNTDKDRSLLLDWDRVRVFDREIAQMFLNMTKLEKEAQVEATSRKEKAKQRPLALNTVEMLRVASSSLGMGPQHAMQTAERLYTQGYISYPRTETTHYPENFDLKGSLRQQANHPYWADTVKRLLAEGINRPRKGHDAGDHPPITPMKSATEAELGGDAWRLYEYITRHFIATVSHDCKYLQSTISFRIGPELFTCSGKTVLSPGFTEVMPWQSVPLEESLPTCQRGDAFPVGEVKMLEKQTNPPDYLTEAELITLMEKHGIGTDASIPVHINNICQRNYVTVESGRRLKPTNLGIVLVHGYYKIDAELVLPTIRSAVEKQLNLIAQGKADYRQVLGHTLDVFKRKFHYFVDSIAGMDELMEVSFSPLAATGKPLSRCGKCHRFMKYIQAKPSRLHCSHCDETYTLPQNGTIKLYKELRCPLDDFELVLWSSGSRGKSYPLCPYCYNHPPFRDMKKGMGCNECTHPSCQHSLSMLGIGQCVECESGVLVLDPTSGPKWKVACNKCNVVAHCFENAHRVRVSADTCSVCEAALLDVDFNKAKSPLPGDETQHMGCVFCDPVFQELVELKHAASCHPMHRGGPGRRQGRGRGRARRPPGKPNPRRPKDKMSALAAYFV [TOP3B]	-0.535	0.0647
MLEPQENGVIDLPDYEHVEDETFPPFPPPASPERQDGEGTEPDEESGNGAPVRVPPKRTVKRNIPKLDAQRLISERGLPALRHVFDKAKFKGKGHEAEDLKMLIRHMEHWAHRLFPKLQFEDFIDRVEYLGSKKEVQTCLKRIRLDLPILHEDFVSNNDEVAENNEHDVTSTELDPFLTNLSESEMFASELSRSLTEEQQQRIERNKQLALERRQAKLLSNSQTLGNDMLMNTPRAHTVEEVNTDEDQKEESNGLNEDILDNPCNDAIANTLNEEETLLDQSFKNVQQQLDATSRNITEAR [TIPIN]	0.321	0.273
MLFTVSCSKMSSIVDRDDSSIFDGLVEEDDKDKAKRVSRNKSEKKRRDQFNVLIKELGSMLPGNARKMDKSTVLQKSIDFLRKHKEITAQSDASEIRQDWKPTFLSNEEFTQLMLEALDGFFLAIMTDGSIIYVSESVTSLLEHLPSDLVDQSIFNFIPEGEHSEVYKILSTHLLESDSLTPEYLKSKNQLEFCCHMLRGTIDPKEPSTYEYVKFIGNFKSLNSVSSSAHNGFEGTIQRTHRPSYEDRVCFVATVRLATPQFIKEMCTVEEPNEEFTSRHSLEWKFLFLDHRAPPIIGYLPFEVLGTSGYDYYHVDDLENLAKCHEHLMQYGKGKSCYYRFLTKGQQWIWLQTHYYITYHQWNSRPEFIVCTHTVVSYAEVRAERRRELGIEESLPETAADKSQDSGSDNRINTVSLKEALERFDHSPTPSASSRSSRKSSHTAVSDPSSTPTKIPTDTSTPPRQHLPAHEKMVQRRSSFSSQSINSQSVGSSLTQPVMSQATNLPIPQGMSQFQFSAQLGAMQHLKDQLEQRTRMIEANIHRQQEELRKIQEQLQMVHGQGLQMFLQQSNPGLNFGSVQLSSGNSSNIQQLAPINMQGQVVPTNQIQSGMNTGHIGTTQHMIQQQTLQSTSTQSQQNVLSGHSQQTSLPSQTQSTLTAPLYNTMVISQPAAGSMVQIPSSMPQNSTQSAAVTTFTQDRQIRFSQGQQLVTKLVTAPVACGAVMVPSTMLMGQVVTAYPTFATQQQQSQTLSVTQQQQQQSSQEQQLTSVQQPSQAQLTQPPQQFLQTSRLLHGNPSTQLILSAAFPLQQSTFPQSHHQQHQSQQQQQLSRHRTDSLPDPSKVQPQ [CLOCK]	0.134	-0.192
MLQKPRNRGRSGGQAERDRDWSHSGNPGASRAGEDARVLRDGFAEEAPSTSRGPGGSQGSQGPSPQGARRAQAAPAVGPRSQKQLELKVSELVQFLLIKDQKKIPIKRADILKHVIGDYKDIFPDLFKRAAERLQYVFGYKLVELEPKSNTYILINTLEPVEEDAEMRGDQGTPTTGLLMIVLGLIFMKGNTIKETEAWDFLRRLGVYPTKKHLIFGDPKKLITEDFVRQRYLEYRRIPHTDPVDYEFQWGPRTNLETSKMKVLKFVAKVHNQDPKDWPAQYCEALADEENRARPQPSGPAPSS [NDNL2]	0.289	0.116
